In article PMC9890229:

Tests used:
[1] = biological target: Crc R90E,Y91F (Flag-tagged, from pME4510crc(R90E,Y91F)Flag) (Pseudomonas aeruginosa) (UniProt Q51380)
[2] = biological target: Pseudomonas aeruginosa Hfq (Pseudomonas aeruginosa) (UniProt Q9HUM0)
[3] = biological target: Hfq (Pseudomonas aeruginosa) (UniProt Q9HUM0); assay: EMSA; settings: EMSA: 20 mM Tris-HCl pH 8.0, 40 mM NaCl, 10 mM KCl, 1 mM MgCl2; 200 nM RNA; 15 min at 37 C; 4% PAA gel in 1x TBE at 4 C, SYBR gold

Row | Substance | translational repression of the rbsB+13::lacZ reporter gene (β-galactosidase activity) in P. aeruginosa PAO1Δcrc [1] [fold] | de-repression of translation of the amiE+60::lacZ reporter gene (β-galactosidase activity) in P. aeruginosa PAO1Δcrc [2] [fold] | de-repression of translation of the estA+18::lacZ reporter gene (β-galactosidase activity) in P. aeruginosa PAO1Δcrc [2] [fold] | binding [3]
1 | Crc R90E,Y91F (Flag-tagged, from pME4510crc(R90E,Y91F)Flag) (from UniProt Q51380 1-259) (natural protein) | 2 | 7 | 2 | 
2 | GGAACGCAAACGUUUGCGUCUGGAUAAUCUCCUGGAAAAGCCUCAAUACAACGAUAAGAAAAGCUGGAGGAUACACCAUGAAGCGGGUCGCUUCCCGGCGCCUGUUGGCU [rbsB110] |  |  |  | binds
3 | GGCUGAGGAGGCUUUACGACGGGCCCCGGGGCGCAUGCCGACGACGCGGCGGCCCGACAAUAAAAACAAAUCAUGGAGUAAGAGAAUGAUCAGAAUGGCGCUCAAGCCACUGGUAGCG [estA118] |  |  |  | binds
4 | GGGCCUUUUUUCGUCCCGAAAAAAUAACAACAAGAGGUGAUAUCCAUGCGUCACGGCGAUAUUUCCAGCAGCAACGACACCGUCGGAGUGGCGGUGGUCAACUAC [amiE105] |  |  |  | binds
